B1: COVIC-66 (antibody)
chain: QVQLQESGGGLVQAGGSLRLSCAASGRTFSEYAMGWFRQAPGKEREFVATISWSGGSTYYTDSVKGRFTISRDNAKNTVYLQMNSLKPDDTAVYYCAAAGLGTVVSEWDYDYDYWGQGTQVTVSSGGSGGSQVQLQESGGGLVQAGGSLRLSCVASGSIFSINAMDWYRQAPGKQRELVAGITSGGSTNYGDFVKGRFTISRDNAKNTVYLQMDSLKPEDTAVYYCAAEVGGWGPPRPDYWGHGTQVTVSSGGGGSGGGGSEPKSCDKTHTCPPCPAPELLGGKKKPLDGEYFTLQIRGRERFEMFRELNEALELKDAQAGKEPG
B2: COVIC-95 (antibody, V domains shown)
VH: EVQLVESGGGLVQPGGSLRLSCAASGQTFNMGWFRQAPGKEREFVAAIGSGGSTSYADSVKGRFTISADNSKNTAYLQMNSLKPEDTAVYYCWRLGNDYFDYWGQGTLVTVSS
B3: COVIC-127 (antibody)
chain 1: not shown
chain 2: QVQLQESGGGLVQAGGSLRLSCAASGRTFSEYAMGWFRQAPGKEREFVATISWSGGSTYYTDSVKGRFTISRDNAKNTVYLQMNSLKPDDTAVYYCAAAGLGTVVSEWDYDYDYWGQGTQVTVSSGGSGGSQVQLQESGGGLVQAGGSLRLSCAASGRTFSEYAMGWFRQAPGKEREFVATISWSGGSTYYTDSVKGRFTISRDNAKNTVYLQMNSLKPDDTAVYYCAAAGLGTVVSEWDYDYDYWGQGTQVTVSSGGGGSGGGGSKRTVAAPSVFIFPPSDEQLKSGTASVVCLLNNFYPREAKVQWKVDNALQSGNSQESVTEQDSKDSTYSLSSTLTLSKADYEKHKVYACEVTHQGLSSPVTKSFNRGEC
B4: COVIC-54 (antibody, V domains shown)
VH: QVQLQESGGGLVQAGGSLRLSCAASGRTFSEYAMGWFRQAPGKEREFVATISWSGGSTYYTDSVKGRFTISRDNAKNTVYLQMNSLKPDDTAVYYCAAAGLGTVVSEWDYDYDYWGQGTQVTVSS
B5: COVIC-291 (antibody, V domains shown)
VH: EVQLVESGGGLVQPGRSLRLSCAASGFTFDDYAMHWVRQAPGKGLEWVSGISWNSDSIDYADSVKGRFTISRDNAKNSLYLQMNSLRAEDTALYYCAKDRGYEILTPASFDYWGQGTLVTVSS
VL: DIQMTQSPSSLSASVGDRVTITCRASQSISSYLNWFQHKPGKAPKLLIYGASSLQSGVPSRFSGSGSGTDFTLTISSLQPEDFATYYCQQSYSTPPYTFGQGTKLEIK
B6: COVIC-30 (antibody, V domains shown)
VH: EVQLVESGGGLVQPGGSLRLSCAASGFTVSSNYMSWVRQAPGKGLEWVSVIYSGGSTYYADSVKGRFTISRDNSKNTLYLQMNSLRAEDTAVYYCARVEWAAAGTFYWGQGTLVTVSS
VL: QSALTQEPSLTVSPGGTVTLTCGSSTGAVTSGHYPYWFQQKPGQAPRTLIYDTSNKRSWTPARFSGSLLGGKAALTLSGAQPEDEAEYYCLLSYSGVWVFGGGTKLTVL
B7: COVIC-57 (antibody)
chain 1: QVQLQESGGGLVQAGGSLRLSCAASGRTFSEYAMGWFRQAPGKEREFVATISWSGGSTYYTDSVKGRFTISRDNAKNTVYLQMNSLKPDDTAVYYCAAAGLGTVVSEWDYDYDYWGQGTQVTVSSGGGGSGGGGSASTKGPSVFPLAPSSKSTSGGTAALGCLVKDYFPEPVTVSWNSGALTSGVHTFPAVLQSSGLYSLSSVVTVPSSSLGTQTYICNVNHKPSNTKVDKKVEPKSCDKTHTKKKPLDGEYFTLQIRGRERFEMFRELNEALELKDAQAGKEPG
chain 2: QVQLQESGGGLVQAGGSLRLSCAASGRTFSEYAMGWFRQAPGKEREFVATISWSGGSTYYTDSVKGRFTISRDNAKNTVYLQMNSLKPDDTAVYYCAAAGLGTVVSEWDYDYDYWGQGTQVTVSSGGGGSGGGGSKRTVAAPSVFIFPPSDEQLKSGTASVVCLLNNFYPREAKVQWKVDNALQSGNSQESVTEQDSKDSTYSLSSTLTLSKADYEKHKVYACEVTHQGLSSPVTKSFNRGEC
B8: COVIC-58 (antibody)
chain 1: QVQLQESGGGLVQAGGSLRLSCAASGRTFSEYAMGWFRQAPGKEREFVATISWSGGSTYYTDSVKGRFTISRDNAKNTVYLQMNSLKPDDTAVYYCAAAGLGTVVSEWDYDYDYWGQGTQVTVSSGGGGSGGGGSASTKGPSVFPLAPSSKSTSGGTAALGCLVKDYFPEPVTVSWNSGALTSGVHTFPAVLQSSGLYSLSSVVTVPSSSLGTQTYICNVNHKPSNTKVDKKVEPKSCDKTHTAPELLGGPSVFLFPPKPKDTLMISRTPEVTCVVVDVSHEDPEVKFNWYVDGVEVHNAKTKPREEQYNSTYRVVSVLTVLHQDWLNGKEYKCKVSNKALPAPIEKTISKAKGQPREPQVYTLPPSRDELTKNQVSLTCLVKGFYPSDIAVEWESNGQPENNYKTTPPVLDSDGSFFLYSKLTVDKSRWQQGNVFSCSVMHEALHNHYTQKSLSLSPGKKKKPLDGEYFTLQIRGRERFEMFRELNEALELKDAQAGKEPG
chain 2: B7 chain 2
B9: COVIC-125 (antibody)
chain 1: QVQLQESGGGLVQAGGSLRLSCAASGRTFSEYAMGWFRQAPGKEREFVATISWSGGSTYYTDSVKGRFTISRDNAKNTVYLQMNSLKPDDTAVYYCAAAGLGTVVSEWDYDYDYWGQGTQVTVSSGGSGGSQVQLQESGGGLVQAGGSLRLSCAASGRTFSEYAMGWFRQAPGKEREFVATISWSGGSTYYTDSVKGRFTISRDNAKNTVYLQMNSLKPDDTAVYYCAAAGLGTVVSEWDYDYDYWGQGTQVTVSSGGGGSGGGGSASTKGPSVFPLAPSSKSTSGGTAALGCLVKDYFPEPVTVSWNSGALTSGVHTFPAVLQSSGLYSLSSVVTVPSSSLGTQTYICNVNHKPSNTKVDKKVEPKSCDKTHTKKKPLDGEYFTLQIRGRERFEMFRELNEALELKDAQAGKEPGGGGGSGGGGSQVQLQESGGGLVQAGGSLRLSCAASGRTFSEYAMGWFRQAPGKEREFVATISWSGGSTYYTDSVKGRFTISRDNAKNTVYLQMNSLKPDDTAVYYCAAAGLGTVVSEWDYDYDYWGQGTQVTVSSGGSGGSQVQLQESGGGLVQAGGSLRLSCAASGRTFSEYAMGWFRQAPGKEREFVATISWSGGSTYYTDSVKGRFTISRDNAKNTVYLQMNSLKPDDTAVYYCAAAGLGTVVSEWDYDYDYWGQGTQVTVSS
chain 2: B7 chain 2
B10: COVIC-368 (antibody, V domains shown)
VH: QVQLVQSGAEVKKPGASVKVSCKAYGYTFTSHYMHWVRQAPGQGLEWMGIIDSSGGGASYPQKFQGRVTLTRDTSSSTVYMELSSLRSEDTAVYYCAKAHSTNWYGWFDPWGQGTLVTVSS
VL: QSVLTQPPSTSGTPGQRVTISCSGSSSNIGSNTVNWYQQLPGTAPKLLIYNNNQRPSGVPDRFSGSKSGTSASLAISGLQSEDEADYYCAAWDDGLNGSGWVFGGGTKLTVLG

biological target: SARS-CoV-2 spike RBD (Wuhan-Hu-1) (Severe acute respiratory syndrome …, UniProt P0DTC2); assay: SPR

Compared with B1, B2 is 5.1-fold lower in Kd: 140 nM for the first, 27.5 nM for the second. The second binds more tightly here.

First: B3
Second: B4
The Kd of the first is 2.3-fold lower: 106 nM for the first, 244 nM for the second.

First: B5
Second: B6
The Kd of the first is 1.7-fold higher: 6.83 nM for the first, 4.1 nM for the second.

B7 and B8 are within 1.5-fold of each other in Kd: 204 nM for the first, 139 nM for the second.

First: B9
Second: B10
The Kd of the first is 420-fold higher: 184 nM for the first, 0.436 nM for the second. The second binds more tightly here.

Reference: paper PMC12014896 (2025)
